Publication PMC11077437

Assays:
[1] = molecular target: T1, human CS1 on CS1pos OPM2 multiple myeloma cells (human (endogenous in OPM2)) (UniProt Q9NQ25); test: flow cytometry on cells; purified VHH at 200 nM, 1 h at 4°C, on CS1pos OPM2 cells; detected by mouse anti-His IgG1 mAb and APC anti-mouse IgG1 mAb; ΔMFI against the non-targeting control VHH R3B23 at 200 nM; n=1
T1 sequence: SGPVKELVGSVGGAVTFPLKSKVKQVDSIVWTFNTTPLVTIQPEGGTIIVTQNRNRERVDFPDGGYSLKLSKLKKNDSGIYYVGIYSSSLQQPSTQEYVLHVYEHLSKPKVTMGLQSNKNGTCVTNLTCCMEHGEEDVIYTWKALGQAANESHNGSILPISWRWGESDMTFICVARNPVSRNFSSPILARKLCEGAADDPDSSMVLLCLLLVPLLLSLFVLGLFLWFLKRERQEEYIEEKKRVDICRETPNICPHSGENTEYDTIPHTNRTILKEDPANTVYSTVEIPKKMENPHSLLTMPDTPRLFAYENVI

[2] = molecular target: T2, recombinant human CS1 protein (CS1-(his)C) (human) (UniProt Q9NQ25); test: SPR; Biacore T200; recombinant CS1 amine-coupled on a CM5 chip; VHH 100 nM to 3.125 nM in HBS pH 7.4, 25°C; association 180 s, dissociation 300 s; fit '1:1 binding with drift and RI2'; n=1
T2 sequence: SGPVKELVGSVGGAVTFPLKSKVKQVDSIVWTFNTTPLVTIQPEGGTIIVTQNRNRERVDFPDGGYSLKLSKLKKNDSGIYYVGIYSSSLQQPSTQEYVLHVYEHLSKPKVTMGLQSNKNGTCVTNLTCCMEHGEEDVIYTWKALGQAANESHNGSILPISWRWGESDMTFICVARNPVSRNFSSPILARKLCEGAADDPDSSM

[3] = molecular target: T1, human CS1 on CS1pos OPM2 multiple myeloma cells (human (endogenous in OPM2))

- ΔMFI [VHH] = 200 nM [1]: 6.09
- Kd [2]: 49.7 nM
- koff [2]: 0.0318 s⁻¹
- kon [2]: 641000 M⁻¹ s⁻¹
- tumor uptake of the 99mTc-labelled VHH in subcutaneous CS1pos OPM2 tumors in mice, ex vivo at 90 min p.i. (n=3) [3]: 0.48 % IA/g
B1: VHH-2 (VHH)
VHH: DVQLVESGGGLVQPGDSLRLSCTASGRTFENNFMGWFRQPPGKEREFVAAVGWNTGRGYYTDSVKGRFTISRDSAKNTVYLQMNSLKPEDTAVYSCNAPLQSLDRRLPGPYWGQGTQVTVSS
